Common to all, as to assay: peptide or protein array; ProtoArray human protein microarray (proteins arrayed in duplicate on nitrocellulose coated glass slide, native conditions) probed with 1 µM AlexaFluor 532-A2C sorcin in the presence of either 1 mM EDTA or 1 mM CaCl2
What all share (details): both partners purified

For test [1], the target named is T1, CSNK2A1, human, on ProtoArray (human, UniProt P68400 1-391).
T1 construct: CSNK2A1 (casein kinase II subunit alpha), human, full length protein of the ProtoArray; source: bought: ProtoArray human protein microarray (Life technologies), individually purified and arrayed

The target in test [2] is T2, Aurora A kinase, human, on ProtoArray (human, UniProt O14965 1-403).
T2 construct: Aurora A kinase, human, full length protein of the ProtoArray; source: bought: ProtoArray human protein microarray (Life technologies), individually purified and arrayed
T2 sequence (looked up): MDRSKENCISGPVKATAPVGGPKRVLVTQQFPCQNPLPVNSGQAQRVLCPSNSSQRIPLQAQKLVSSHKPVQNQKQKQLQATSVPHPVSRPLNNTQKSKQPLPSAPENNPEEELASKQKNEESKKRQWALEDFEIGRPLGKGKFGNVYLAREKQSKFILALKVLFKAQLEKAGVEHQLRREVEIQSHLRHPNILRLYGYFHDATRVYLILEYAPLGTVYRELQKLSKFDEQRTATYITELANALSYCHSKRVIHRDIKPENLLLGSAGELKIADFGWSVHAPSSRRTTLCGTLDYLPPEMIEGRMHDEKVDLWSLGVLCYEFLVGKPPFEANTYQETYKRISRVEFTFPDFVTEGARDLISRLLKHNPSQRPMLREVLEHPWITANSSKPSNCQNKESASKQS

Test [3] has as its target T3, CSNK2A2, human, on ProtoArray (human, UniProt P19784 1-350).
T3 construct: CSNK2A2 (casein kinase II subunit alpha'), human, full length protein of the ProtoArray; source: bought: ProtoArray human protein microarray (Life technologies), individually purified and arrayed

Test [4] addresses T4, Annexin 11, human, on ProtoArray (human, UniProt P50995 1-505).
T4 construct: Annexin 11, human, full length protein of the ProtoArray; source: bought: ProtoArray human protein microarray (Life technologies), individually purified and arrayed

In test [5] the target is T5, Aurora B kinase, human, on ProtoArray (human, UniProt Q96GD4 1-344).
T5 construct: Aurora B kinase, human, full length protein of the ProtoArray; source: bought: ProtoArray human protein microarray (Life technologies), individually purified and arrayed

In test [6] the target is T6, Polo-like kinase 1 (PLK1), human, on ProtoArray (human, UniProt P53350 1-603).
T6 construct: Polo-like kinase 1, human, full length protein of the ProtoArray; In the functional row this id stands for purified recombinant PLK1 bought from Cell Signaling Technology (#7728); source: bought: ProtoArray human protein microarray (Life technologies), individually purified and arrayed
T6 sequence (P53350 whole entry): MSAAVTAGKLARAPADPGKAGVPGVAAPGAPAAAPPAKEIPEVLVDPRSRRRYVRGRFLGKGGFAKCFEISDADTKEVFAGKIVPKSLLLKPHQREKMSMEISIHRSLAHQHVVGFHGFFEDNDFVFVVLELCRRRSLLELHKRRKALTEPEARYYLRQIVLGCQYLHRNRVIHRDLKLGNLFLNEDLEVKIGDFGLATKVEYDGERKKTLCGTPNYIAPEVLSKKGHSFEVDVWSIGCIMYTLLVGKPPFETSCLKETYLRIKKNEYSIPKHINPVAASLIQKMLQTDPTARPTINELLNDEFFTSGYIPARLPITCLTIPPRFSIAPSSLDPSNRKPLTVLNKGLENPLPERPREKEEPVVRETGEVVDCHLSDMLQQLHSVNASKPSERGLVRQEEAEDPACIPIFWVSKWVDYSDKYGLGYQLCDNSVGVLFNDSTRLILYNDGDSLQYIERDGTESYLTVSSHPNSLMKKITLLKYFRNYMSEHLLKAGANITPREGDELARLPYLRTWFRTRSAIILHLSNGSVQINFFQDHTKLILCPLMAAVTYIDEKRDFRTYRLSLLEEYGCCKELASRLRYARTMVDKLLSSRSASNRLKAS

T5 sequence (Q96GD4 whole entry): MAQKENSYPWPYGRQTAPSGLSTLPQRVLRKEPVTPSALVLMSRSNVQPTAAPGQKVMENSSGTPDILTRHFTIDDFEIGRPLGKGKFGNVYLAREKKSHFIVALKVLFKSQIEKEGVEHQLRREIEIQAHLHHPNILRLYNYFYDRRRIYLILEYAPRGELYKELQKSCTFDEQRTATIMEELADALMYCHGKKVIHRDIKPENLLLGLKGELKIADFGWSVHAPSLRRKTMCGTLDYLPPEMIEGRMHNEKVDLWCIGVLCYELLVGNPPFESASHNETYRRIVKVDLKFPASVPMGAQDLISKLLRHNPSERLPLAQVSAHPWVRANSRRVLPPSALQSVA
T1 sequence (P68400 whole entry): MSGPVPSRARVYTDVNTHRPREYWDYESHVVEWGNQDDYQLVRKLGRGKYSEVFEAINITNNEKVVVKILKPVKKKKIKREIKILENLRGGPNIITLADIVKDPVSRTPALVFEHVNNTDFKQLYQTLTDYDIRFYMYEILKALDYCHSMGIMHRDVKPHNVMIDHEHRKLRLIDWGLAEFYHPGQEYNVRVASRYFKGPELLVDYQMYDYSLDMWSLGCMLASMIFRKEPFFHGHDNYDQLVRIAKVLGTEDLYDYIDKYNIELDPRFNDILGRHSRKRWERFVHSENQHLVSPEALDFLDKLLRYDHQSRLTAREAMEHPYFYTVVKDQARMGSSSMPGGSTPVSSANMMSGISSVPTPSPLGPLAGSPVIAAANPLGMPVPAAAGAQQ
T3 sequence (P19784 whole entry): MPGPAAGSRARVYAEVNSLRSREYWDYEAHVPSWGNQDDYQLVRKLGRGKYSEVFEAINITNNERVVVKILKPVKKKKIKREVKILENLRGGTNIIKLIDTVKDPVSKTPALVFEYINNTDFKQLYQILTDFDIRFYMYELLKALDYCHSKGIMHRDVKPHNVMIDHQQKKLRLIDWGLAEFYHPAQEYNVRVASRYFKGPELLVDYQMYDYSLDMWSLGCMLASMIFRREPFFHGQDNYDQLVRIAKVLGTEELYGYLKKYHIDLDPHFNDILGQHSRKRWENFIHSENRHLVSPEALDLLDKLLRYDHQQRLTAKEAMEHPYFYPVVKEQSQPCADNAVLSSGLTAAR
T4 sequence (P50995 whole entry): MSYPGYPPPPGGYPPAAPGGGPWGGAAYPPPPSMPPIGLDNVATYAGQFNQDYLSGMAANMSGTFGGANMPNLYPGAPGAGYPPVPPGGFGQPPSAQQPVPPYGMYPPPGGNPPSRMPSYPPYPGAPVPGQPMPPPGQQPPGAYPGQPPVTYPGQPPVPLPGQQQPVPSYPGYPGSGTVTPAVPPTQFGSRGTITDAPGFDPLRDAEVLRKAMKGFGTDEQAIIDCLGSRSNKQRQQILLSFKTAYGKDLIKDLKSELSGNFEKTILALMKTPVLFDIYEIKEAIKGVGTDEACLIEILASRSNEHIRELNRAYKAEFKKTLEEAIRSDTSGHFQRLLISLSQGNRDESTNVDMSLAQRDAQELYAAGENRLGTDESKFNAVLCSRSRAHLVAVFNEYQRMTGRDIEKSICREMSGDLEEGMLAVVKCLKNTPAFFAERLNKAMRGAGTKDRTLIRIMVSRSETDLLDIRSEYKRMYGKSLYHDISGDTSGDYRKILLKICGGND

B1: AlexaFluor 532-A2C sorcin (natural protein, human)
chain: MCYPGHPGAGGGYYPGGYGGAPGGPAFPGQTQDPLYGYFAAVAGQDGQIDADELQRCLTQSGIAGGYKPFNLETCRLMVSMLDRDMSGTMGFNEFKELWAVLNGWRQHFISFDTDRSGTVDPQELQKALTTMGFRLSPQAVNSIAKRYSTNGKITFDDYIACCVKLRALTDSFRRRDTAQQGVVNFPYDDFIQCVMSV
modifications: AlexaFluor 532 C5-maleimide on thiol groups (A2C mutant made for the conjugation)
notes: In the functional row this id stands for unlabelled human wt sorcin (HS) from the same expression system; also called A2C-sorcin-AlexaFluor 532 maleimide; source: E. coli BL21(DE3), purified according to Meyers et al; labelled with AlexaFluor 532 C5-maleimide
Consider B1, for which the binding result in test [1], in test [2], in test [3], in test [4] and in test [5] was “binds” each time. Also, the “fold increase of the interaction with 1 mM calcium against EDTA” value in test [6] amounted to 1.5 fold.
